Columns and labels:
[1] = biological target: VAMPtide (o-Abz/Dnp) (List Biological Laboratories, Inc.); experiment: cell-based or functional assay
[2] = biological target: PL150 (Pharmaleads): [(Ac-60-94)VAMP](Pya74,Nop77); experiment: cell-based or functional assay
[3] = biological target: GST-Synaptotagmin II (SytII) fusion protein (rat)

Substance | limit of detection of the toxin by VAMPtide cleavage [1] | lowest toxin concentration detected by substrate cleavage (fluorescence) [1] | lowest toxin concentration detected by substrate cleavage (fluorescence) [2] | increase of binding at pH 5.2 against pH 7.2 [3]
BoNT/B complex from C. botulinum strain Okra B (Metabiologics Inc.) (from UniProt B1INP5 2-1291) | 5 nM |  |  | 
purified 150 kDa BoNT/B from C. botulinum strain Okra B (Metabiologics Inc.) | 2 nM | 2 nM | 10 pM | 100%
